Data published in patent US6858210B1, “Therapeutic and diagnostic domain 1 β2GPI polypeptides and methods of using same” (La Jolla Pharmaceutical Co., priority 1998, dated 2005).
Like-named read-outs stand apart in the source and are kept apart here.

Experiments:
[1] = molecular target: affinity purified β2-GPI domain 1 specific antibodies from patients 6701 and 6626; assay: Surface plasmon resonance Kd determination on immobilized antibodies; type: binding, human; details: read-out: Apparent equilibrium dissociation constant
Description: Reagents. CM5 chips, NHS and EDC and HBS-EP buffer were from BIAcore. Human pooled normal IgG (Zymed) was immobilized in a separate flow cell on the chip and used as a negative control. Affinity purified 2-GPI domain 1 specific antibodies from 2 patients (6701 and 6626) were immobilized in separate flow cells.
Surface Plasmon Resonance. All experiments were done on a BIAcore™ 2000 instrument at 25° C. with a flow rate of 10 μL/minute. Chip equilibration and binding studies were performed with degassed HBS-EP buffer, which consists of 0.01 M HEPES pH 7.4, 0.15 M NaCl, 3 mM EDTA and 0.005% (v/v) surfactant β20. […]
Titrations. […] Since the approach to binding equilibrium was incomplete during the measurement period, the equilibrium binding value (Req) was determined by fitting the association curves to the following equation using the manufacturer software (BiaEvaluation version 2.2, Uppsala, Sweden)): Rt=Req(1−e^−ks(t−t0))+R0 where Rt is the measured BIAcore response at time t, Req is the equilibrium plateau response, t is time, t0 is initial time, ks is an apparent association constant (ks=kaC+kdis where ka is the association constant, C is the analyte concentration and kdis is the dissociation constant), and R0 is a response offset, (Marquart-Levenberg algorithm). […]

[2] = molecular target: affinity purified β2GPI-dependent antiphospholipid antibody from patient 6644; assay: comp. inhibition ELISA
[3] = molecular target: affinity purified β2GPI-dependent antiphospholipid antibody preparation 6641 (from patient 6641); assay: comp. inhibition ELISA
[4] = molecular target: affinity purified β2GPI-dependent antiphospholipid antibody from patient 7008; assay: comp. inhibition ELISA
[5] = molecular target: β2GPI-dependent antiphospholipid antibody from patient 6701; assay: comp. inhibition ELISA
[6] = molecular target: affinity purified β2GPI-dependent antiphospholipid antibody from patient 7101; assay: comp. inhibition ELISA
[7] = molecular target: affinity purified β2GPI-dependent antiphospholipid antibody from patient 6509; assay: comp. inhibition ELISA
[8] = molecular target: β2GPI-dependent antiphospholipid antibody from patient 6626; assay: comp. inhibition ELISA
[9] = molecular target: affinity purified β2GPI-dependent antiphospholipid antibody from patient 6652; assay: comp. inhibition ELISA
[10] = molecular target: β2GPI-dependent antiphospholipid antibody from patient 6501; assay: comp. inhibition ELISA
[11] = molecular target: affinity purified β2GPI-dependent antiphospholipid antibody from patient 6203; assay: comp. inhibition ELISA
[12] = test system: affinity purified β2GPI-dependent antiphospholipid antibody; assay: Cardiolipin based ELISA, recombinant β2GPI proteins bound to cardiolipin coated wells; type: binding, human; details: cardiolipin coated plates
Description: Microtiter plates (Immulon 1 #3350 from Dynex Technologies) were coated with 30 μl of a 50 μg/ml solution of cardiolipin in ethanol, dried overnight at 4° C., washed three times with PBS, pH 7.2, and blocked for one hour at room temperature with 75 μl of 5% (wt/v) fish gelatin, (Hipure Liquid Gelatin, Norland Products Inc. 695 Joyce Kilmer Ave., New Brunswick N.J., USA). The plates were washed three times with PBS, charged with 50 μl of full length recombinant β2GPI at 10 μg/ml in 5% fish gelatin and incubated at 37° C. for one hour. […] The optical density, at 550 nm, was determined by reading the plates in a microplate autoreader (Bio-Teck Instruments, model EL311).
Seven different recombinant β2GPI mutant proteins were examined to determine if they could support the direct binding of affinity purified β2GPI-dependent antiphospholipid antibody preparations in the presence of anionic phospholipid. All seven recombinant mutant β2GPI were assayed with rabbit anti-β2GPI and with an affinity purified β2GPI-dependent antiphospholipid antibody preparation. Each mutant recombinant β2GPI protein was tested, in a dose dependent fashion and GST-6his was included as a negative control. The recombinant mutant β2GPI proteins were bound to microtiter plates that had previously been coated with cardiolipin. […]

B1: 1----: recombinant β2GPI protein with domain 1 only (SEQ ID NO:4 region), His6 tail (protein)
chain: GRTCPKPDDLPFSTVVPLKTFYEPGEEITYSCKPGYVSRGGMRKFICPLTGLWPINTLKCTPRVGHHHHHH
- Kd ([1]; immobilized antibody from patient 6626): 0.333 ± 0.018 µM
- Kd ([1]; immobilized antibody from patient 6701): 0.417 ± 0.036 µM

B2: recombinant β2GPI domain 5 with GlyHis6 (----5) (protein)
chain: GRASCKLPVKKATVVYQGERVKIQEKFKNGMLHGDKVSFFCKNKEKKCSYTEDAQCIDGTIEVPKCFKEHSSLAFWKTDASDVKPCGHHHHHH
- IC50 [2]: > 47 µM
- Max inhibition [2]: 10%
- IC50 [3]: > 47 µM
- Max inhibition [3]: 10%
- IC50 [4]: > 47 µM
- Max inhibition [4]: 20%
- IC50 [5]: > 47 µM
- Max inhibition [5]: 10%
- IC50 [6]: > 47 µM
- Max inhibition [6]: 5%
- IC50 [7]: > 47 µM
- Max inhibition [7]: 10%
- IC50 [8]: > 47 µM
- Max inhibition [8]: 10%
- IC50 [9]: > 47 µM
- Max inhibition [9]: 15%
- IC50 [10]: > 47 µM
- Max inhibition [10]: 10%
- IC50 [11]: > 47 µM
- Max inhibition [11]: 5%

B3: 12345: recombinant full length human β2GPI (domains 1-5) with C-terminal GlyHis6, baculovirus expressed (protein)
chain: GRTCPKPDDLPFSTVVPLKTFYEPGEEITYSCKPGYVSRGGMRKFICPLTGLWPINTLKCTPRVCPFAGILENGAVRYTTFEYPNTISFSCNTGFYLNGADSAKCTEEGKWSPELPVCAPIICPPPSIPTFATLRVYKPSAGNNSLYRDTAVFECLPQHAMFGNDTITCTTHGNWTKLPECREVKCPFPSRPDNGFVNYPAKPTLYYKDKATFGCHDGYSLDGPEEIECTKLGNWSAMPSCKASCKLPVKKATVVYQGERVKIQEKFKNGMLHGDKVSFFCKNKEKKCSYTEDAQCIDGTIEVPKCFKEHSSLAFWKTDASDVKPCGHHHHHH
- direct binding of patient antibody [12]: readily detected
